Data: US20240270846A1 (published 2024)
Changes are numbered by the printed parent chain. Numbers in names are those of the source.

B1: GLS3000 H27dY one-arm antibody (H chain CE115HA000) (antibody, human IgG1, kappa, L234A L235A, N297A, name in Kabat numbering)
heavy: QVQLVESGGGVVQPGRSLRLSCAASGFTFSNAWMHWVRQAPGKGLEWVAQIKAKSNNYATYYAESVKGRFTISRDDSKNSLYLQMNSLKTEDTAVYYCRYVHYGAYYGVDAWGQGTTVTVSSASTKGPSVFPLAPSSKSTSGGTAALGCLVKDYFPEPVTVSWNSGALTSGVHTFPAVLQSSGLYSLSSVVTVPSSSLGTQTYICNVNHKPSNTKVDKKVEPKSCDKTHTCPPCPAPEAAGGPSVFLFPPKPKDTLMISRTPEVTCVVVDVSHEDPEVKFNWYVDGVEVHNAKTKPREEQYASTYRVVSVLTVLHQDWLNGKEYKCKVSNKALPAPIEKTISKAKGQPREPQVYTLPPSRCELTKNQVSLSCAVKGFYPSDIAVEWESNGQPENNYKTTPPVLDSDGSFFLVSKLTVDKSRWQQGNVFSCSVMHEALHNHYTQKSLSLSPDYKDDDDK
chain: EPKSSDKTHTCPPCPAPELLGGPSVFLFPPKPKDTLMISRTPEVTCVVVDVSHEDPEVKFNWYVDGVEVHNAKTKPREEQYNSTYRVVSVLTVLHQDWLNGKEYKCKVSNKALPAPIEKTISKAKGQPREPQVCTLPPSRDELTKNQVSLWCLVKGFYPSDIAVEWESNGQPENNYKTTPPVLDSDGSFFLYSKLTVDKSRWQQGNVFSCSVMHEALHNRYTQKSLSLSP
light: DIVMTQSPLSLPVTPGEPASISCRSSQSLVYSNRNTYLHWYQQKPGQAPRLLIYKVSNRFSGVPDRFSGSGSGTDFTLKISRVEAEDVGVYYCGQGTQVPYTFGQGTKLEIKRTVAAPSVFIFPPSDEQLKSGTASVVCLLNNFYPREAKVQWKVDNALQSGNSQESVTEQDSKDSTYSLSSTLTLSKADYEKHKVYACEVTHQGLSSPVTKSFNRGEC
notes: one-arm antibody
B2: GLS3000 H34A one-arm antibody (H chain CE115HA000) (antibody, human IgG1, kappa, L234A L235A, N297A, name in Kabat numbering)
heavy: B1 heavy
chain: B1 chain
light: B1 light with Y31H, H39A
notes: one-arm antibody
B3: GLS3000 H34D one-arm antibody (H chain CE115HA000) (antibody, human IgG1, kappa, L234A L235A, N297A, name in Kabat numbering)
heavy: B1 heavy
chain: B1 chain
light: B1 light with Y31H, H39D
notes: one-arm antibody
B4: GLS3000 K50A one-arm antibody (H chain CE115HA000) (antibody, human IgG1, kappa, L234A L235A, N297A, name in Kabat numbering)
heavy: B1 heavy
chain: B1 chain
light: B1 light with Y31H, K55A
notes: one-arm antibody
B5: GLS3000 K50D one-arm antibody (H chain CE115HA000) (antibody, human IgG1, kappa, L234A L235A, N297A, name in Kabat numbering)
heavy: B1 heavy
chain: B1 chain
light: B1 light with Y31H, K55D
notes: one-arm antibody
B6: GLS3000 L27bD one-arm antibody (H chain CE115HA000) (antibody, human IgG1, kappa, L234A L235A, N297A, name in Kabat numbering)
heavy: B1 heavy
chain: B1 chain
light: B1 light with L29D, Y31H
notes: one-arm antibody
B7: GLS3000 L27bE one-arm antibody (H chain CE115HA000) (antibody, human IgG1, kappa, L234A L235A, N297A, name in Kabat numbering)
heavy: B1 heavy
chain: B1 chain
light: B1 light with L29E, Y31H
notes: one-arm antibody
B8: GLS3000 L27bF one-arm antibody (H chain CE115HA000) (antibody, human IgG1, kappa, L234A L235A, N297A, name in Kabat numbering)
heavy: B1 heavy
chain: B1 chain
light: B1 light with L29F, Y31H
notes: one-arm antibody
B9: GLS3000 L27bI one-arm antibody (H chain CE115HA000) (antibody, human IgG1, kappa, L234A L235A, N297A, name in Kabat numbering)
heavy: B1 heavy
chain: B1 chain
light: B1 light with L29I, Y31H
notes: one-arm antibody
B10: GLS3000 L27bM one-arm antibody (H chain CE115HA000) (antibody, human IgG1, kappa, L234A L235A, N297A, name in Kabat numbering)
heavy: B1 heavy
chain: B1 chain
light: B1 light with L29M, Y31H
notes: one-arm antibody
B11: GLS3000 L27bP one-arm antibody (H chain CE115HA000) (antibody, human IgG1, kappa, L234A L235A, N297A, name in Kabat numbering)
heavy: B1 heavy
chain: B1 chain
light: B1 light with L29P, Y31H
notes: one-arm antibody
B12: GLS3000 L27bS one-arm antibody (H chain CE115HA000) (antibody, human IgG1, kappa, L234A L235A, N297A, name in Kabat numbering)
heavy: B1 heavy
chain: B1 chain
light: B1 light with L29S, Y31H
notes: one-arm antibody
B13: GLS3000 L27bV one-arm antibody (H chain CE115HA000) (antibody, human IgG1, kappa, L234A L235A, N297A, name in Kabat numbering)
heavy: B1 heavy
chain: B1 chain
light: B1 light with L29V, Y31H
notes: one-arm antibody
B14: GLS3000 L27bW one-arm antibody (H chain CE115HA000) (antibody, human IgG1, kappa, L234A L235A, N297A, name in Kabat numbering)
heavy: B1 heavy
chain: B1 chain
light: B1 light with L29W, Y31H
notes: one-arm antibody
B15: GLS3000 L27bY one-arm antibody (H chain CE115HA000) (antibody, human IgG1, kappa, L234A L235A, N297A, name in Kabat numbering)
heavy: B1 heavy
chain: B1 chain
light: B1 light with L29Y, Y31H
notes: one-arm antibody
B16: GLS3000 L33A one-arm antibody (H chain CE115HA000) (antibody, human IgG1, kappa, L234A L235A, N297A, name in Kabat numbering)
heavy: B1 heavy
chain: B1 chain
light: B1 light with Y31H, L38A
notes: one-arm antibody
B17: GLS3000 L33D one-arm antibody (H chain CE115HA000) (antibody, human IgG1, kappa, L234A L235A, N297A, name in Kabat numbering)
heavy: B1 heavy
chain: B1 chain
light: B1 light with Y31H, L38D
notes: one-arm antibody
B18: GLS3000 N28A one-arm antibody (H chain CE115HA000) (antibody, human IgG1, kappa, L234A L235A, N297A, name in Kabat numbering)
heavy: B1 heavy
chain: B1 chain
light: B1 light with Y31H, N33A
notes: one-arm antibody
B19: GLS3000 N28D one-arm antibody (H chain CE115HA000) (antibody, human IgG1, kappa, L234A L235A, N297A, name in Kabat numbering)
heavy: B1 heavy
chain: B1 chain
light: B1 light with Y31H, N33D
notes: one-arm antibody
B20: GLS3000 N28E one-arm antibody (H chain CE115HA000) (antibody, human IgG1, kappa, L234A L235A, N297A, name in Kabat numbering)
heavy: B1 heavy
chain: B1 chain
light: B1 light with Y31H, N33E
notes: one-arm antibody
B21: GLS3000 N28F one-arm antibody (H chain CE115HA000) (antibody, human IgG1, kappa, L234A L235A, N297A, name in Kabat numbering)
heavy: B1 heavy
chain: B1 chain
light: B1 light with Y31H, N33F
notes: one-arm antibody
B22: GLS3000 N28G one-arm antibody (H chain CE115HA000) (antibody, human IgG1, kappa, L234A L235A, N297A, name in Kabat numbering)
heavy: B1 heavy
chain: B1 chain
light: B1 light with Y31H, N33G
notes: one-arm antibody
B23: GLS3000 N28H one-arm antibody (H chain CE115HA000) (antibody, human IgG1, kappa, L234A L235A, N297A, name in Kabat numbering)
heavy: B1 heavy
chain: B1 chain
light: B1 light with Y31H, N33H
notes: one-arm antibody
B24: GLS3000 N28I one-arm antibody (H chain CE115HA000) (antibody, human IgG1, kappa, L234A L235A, N297A, name in Kabat numbering)
heavy: B1 heavy
chain: B1 chain
light: B1 light with Y31H, N33I
notes: one-arm antibody
B25: GLS3000 N28K one-arm antibody (H chain CE115HA000) (antibody, human IgG1, kappa, L234A L235A, N297A, name in Kabat numbering)
heavy: B1 heavy
chain: B1 chain
light: B1 light with Y31H, N33K
notes: one-arm antibody
B26: GLS3000 N28L one-arm antibody (H chain CE115HA000) (antibody, human IgG1, kappa, L234A L235A, N297A, name in Kabat numbering)
heavy: B1 heavy
chain: B1 chain
light: B1 light with Y31H, N33L
notes: one-arm antibody
B27: GLS3000 N28M one-arm antibody (H chain CE115HA000) (antibody, human IgG1, kappa, L234A L235A, N297A, name in Kabat numbering)
heavy: B1 heavy
chain: B1 chain
light: B1 light with Y31H, N33M
notes: one-arm antibody
B28: GLS3000 N28P one-arm antibody (H chain CE115HA000) (antibody, human IgG1, kappa, L234A L235A, N297A, name in Kabat numbering)
heavy: B1 heavy
chain: B1 chain
light: B1 light with Y31H, N33P
notes: one-arm antibody
B29: GLS3000 N28Q one-arm antibody (H chain CE115HA000) (antibody, human IgG1, kappa, L234A L235A, N297A, name in Kabat numbering)
heavy: B1 heavy
chain: B1 chain
light: B1 light with Y31H, N33Q
notes: one-arm antibody
B30: GLS3000 N28S one-arm antibody (H chain CE115HA000) (antibody, human IgG1, kappa, L234A L235A, N297A, name in Kabat numbering)
heavy: B1 heavy
chain: B1 chain
light: B1 light with Y31H, N33S
notes: one-arm antibody
B31: GLS3000 N28T one-arm antibody (H chain CE115HA000) (antibody, human IgG1, kappa, L234A L235A, N297A, name in Kabat numbering)
heavy: B1 heavy
chain: B1 chain
light: B1 light with Y31H, N33T
notes: one-arm antibody
B32: GLS3000 N28V one-arm antibody (H chain CE115HA000) (antibody, human IgG1, kappa, L234A L235A, N297A, name in Kabat numbering)
heavy: B1 heavy
chain: B1 chain
light: B1 light with Y31H, N33V
notes: one-arm antibody

target: T1, CD3 epsilon homodimer protein (UniProt P07766 23-126); assay: SPR, CD3e homodimer on chip;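 note: surface plasmon resonance at 25 degrees C, antibodies flowed as analyte over CD3 epsilon homodimer amine-coupled to a CM4 chip, running buffer HBS-EP+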
T1 construct: also called CD3 (CD3 epsilon)
T1 sequence (P07766 23-126): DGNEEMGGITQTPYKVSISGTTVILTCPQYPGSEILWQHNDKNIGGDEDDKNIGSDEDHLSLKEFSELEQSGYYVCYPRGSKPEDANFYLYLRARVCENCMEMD

Binder	ratio of amounts bound (altered form / unaltered GLS3000 antibody)
B1	0.64
B2	1.06
B3	0.22
B4	0.23
B5	0.22
B6	0.17
B7	0.17
B8	0.42
B9	1.19
B10	0.71
B11	0.91
B12	0.71
B13	1.12
B14	0.26
B15	0.25
B16	0.85

Binder	ratio of amounts bound (altered form / unaltered GLS3000 antibody)
B17	0.17
B18	0.25
B19	0.19
B20	0.4
B21	0.46
B22	0.46
B23	0.42
B24	0.44
B25	0.44
B26	0.39
B27	0.39
B28	0.36
B29	0.37
B30	0.32
B31	0.45
B32	0.36
